Test results taken from the supplement of paper PMC9112550, “Optimization of the antimicrobial peptide Bac7 by deep mutational scanning” (BMC Biology, 2022).

Test system: Escherichia coli TOP10
Assay: shrunken log2 fold change of peptide-encoding DNA abundance (4.5 h post-induction vs induction); higher = less antimicrobial activity (less host growth inhibition)
Settings: time post-induction: 4.5 h; library: site-saturation at positions 5, 18, 19, 20
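Note: peptides expressed intracellularly from a pBAD plasmid library in pooled LB shake-flask culture, induced with 0.3% L-arabinose, DNA abundance read by NGS, three biological replicates, DESeq2 with apeglm shrinkage.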

Sequence | shrunken log2 fold change
RRIRLRPPRLPRPRPRPVMAPRP | 0.0839
RRIRQRPPRLPRPRPRPRWTPRP | 0.25
RRIRQRPPRLPRPRPRPYFNPRP | -0.82
RRIRMRPPRLPRPRPRPTYPPRP | -0.0846
RRIRARPPRLPRPRPRPYNGPRP | -0.0341
RRIRTRPPRLPRPRPRPMRMPRP | 0.162
RRIRMRPPRLPRPRPRPAMTPRP | 1.35
RRIRDRPPRLPRPRPRPVAAPRP | 0.833
RRIRLRPPRLPRPRPRPMRPPRP | 1.44
RRIRARPPRLPRPRPRPLVEPRP | 0.666
RRIRDRPPRLPRPRPRPPLDPRP | 0.652
RRIRWRPPRLPRPRPRPLCMPRP | -0.177
RRIRWRPPRLPRPRPRPGKIPRP | 0.159
RRIRGRPPRLPRPRPRPPMDPRP | 0.597
RRIRPRPPRLPRPRPRPMACPRP | -0.161
RRIRSRPPRLPRPRPRPTFDPRP | 0.0254
RRIRDRPPRLPRPRPRPKNRPRP | 0.0678
RRIRPRPPRLPRPRPRPCVIPRP | -0.222
RRIRVRPPRLPRPRPRPVDRPRP | 0.257
RRIRRRPPRLPRPRPRPHLWPRP | 0.25
RRIRERPPRLPRPRPRPVPCPRP | -0.193
RRIRGRPPRLPRPRPRPQVNPRP | 0.0954

Sequence | shrunken log2 fold change
RRIRERPPRLPRPRPRPQGVPRP | 0.0697
RRIRDRPPRLPRPRPRPNIKPRP | -0.384
RRIRLRPPRLPRPRPRPTFGPRP | -0.0654
RRIRLRPPRLPRPRPRPIVWPRP | -0.027
RRIRHRPPRLPRPRPRPYGEPRP | -1.23
RRIRCRPPRLPRPRPRPPHAPRP | 1.04
RRIRARPPRLPRPRPRPSVMPRP | 0.00738
RRIRPRPPRLPRPRPRPPQSPRP | 0.621
RRIRDRPPRLPRPRPRPRAGPRP | 0.741
RRIRCRPPRLPRPRPRPLFEPRP | 0.193
RRIRDRPPRLPRPRPRPGTFPRP | 0.00435
RRIRSRPPRLPRPRPRPTHQPRP | 0.417
RRIRNRPPRLPRPRPRPRVGPRP | 0.0576
RRIRIRPPRLPRPRPRPFRMPRP | -0.91
RRIRYRPPRLPRPRPRPLVSPRP | -0.113
RRIRDRPPRLPRPRPRPYESPRP | 0.00683
RRIRPRPPRLPRPRPRPHLMPRP | -0.0526
RRIRPRPPRLPRPRPRPRRQPRP | 0.673
RRIRNRPPRLPRPRPRPGMAPRP | 0.0313
RRIRRRPPRLPRPRPRPGCVPRP | 0.329
RRIRDRPPRLPRPRPRPNTYPRP | -0.127
RRIRTRPPRLPRPRPRPCNIPRP | 0.048

Sequence | shrunken log2 fold change
RRIRNRPPRLPRPRPRPGVWPRP | 0.474
RRIRFRPPRLPRPRPRPCITPRP | -0.709
RRIRHRPPRLPRPRPRPPFEPRP | 0.161
RRIRVRPPRLPRPRPRPNWLPRP | -0.105
RRIRWRPPRLPRPRPRPMDNPRP | -0.0894
RRIRSRPPRLPRPRPRPYNMPRP | -0.817
RRIRARPPRLPRPRPRPGIGPRP | 0.524
RRIRERPPRLPRPRPRPIMQPRP | -0.164
RRIRARPPRLPRPRPRPWNPPRP | 0.126
RRIRFRPPRLPRPRPRPVIEPRP | -0.161
RRIRIRPPRLPRPRPRPWRFPRP | -0.105
RRIRWRPPRLPRPRPRPISDPRP | -0.154
RRIRGRPPRLPRPRPRPCCTPRP | 1.31
RRIRHRPPRLPRPRPRPPFFPRP | 0.168
RRIRNRPPRLPRPRPRPPKFPRP | -0.0082
RRIRNRPPRLPRPRPRPVFAPRP | -0.0312
RRIRLRPPRLPRPRPRPAYAPRP | -0.0747
RRIRPRPPRLPRPRPRPWIVPRP | -0.197
RRIRDRPPRLPRPRPRPMPSPRP | 0.026
RRIRQRPPRLPRPRPRPGWFPRP | 0.209
RRIRKRPPRLPRPRPRPSNQPRP | -0.018
RRIRLRPPRLPRPRPRPLDMPRP | -0.358

Sequence | shrunken log2 fold change
RRIRDRPPRLPRPRPRPDDKPRP | 0.0802
RRIRNRPPRLPRPRPRPFHCPRP | -0.536
RRIRSRPPRLPRPRPRPGCVPRP | 0.247
RRIRTRPPRLPRPRPRPIQAPRP | 0.232
RRIRFRPPRLPRPRPRPGGKPRP | 0.228
RRIRLRPPRLPRPRPRPMPQPRP | 0.164
RRIRKRPPRLPRPRPRPVVPPRP | -0.093
RRIRVRPPRLPRPRPRPGTKPRP | 0.193
RRIRRRPPRLPRPRPRPKVLPRP | 0.378
RRIRGRPPRLPRPRPRPHYHPRP | -0.421
RRIRHRPPRLPRPRPRPWKAPRP | 0.00938
RRIRWRPPRLPRPRPRPTCMPRP | 0.553
RRIRPRPPRLPRPRPRPPGYPRP | 0.116
RRIRTRPPRLPRPRPRPGTEPRP | 0.0787
RRIRFRPPRLPRPRPRPSQMPRP | -0.208
RRIRPRPPRLPRPRPRPDDHPRP | -0.0314
RRIRNRPPRLPRPRPRPTWGPRP | -0.00179
RRIRSRPPRLPRPRPRPEMEPRP | 0.00902
RRIRKRPPRLPRPRPRPFTFPRP | -0.325
RRIRWRPPRLPRPRPRPACYPRP | 0.443
RRIRVRPPRLPRPRPRPSQCPRP | -0.187
RRIRVRPPRLPRPRPRPQNGPRP | -0.356

Sequence | shrunken log2 fold change
RRIRPRPPRLPRPRPRPLLAPRP | 1.42
RRIRARPPRLPRPRPRPCDMPRP | 0.208
RRIRWRPPRLPRPRPRPTWAPRP | 0.369
RRIRHRPPRLPRPRPRPQMPPRP | -0.232
RRIRQRPPRLPRPRPRPHISPRP | -0.312
RRIRPRPPRLPRPRPRPVMGPRP | 0.149
RRIRWRPPRLPRPRPRPKRNPRP | 0.432
RRIRSRPPRLPRPRPRPALWPRP | 0.825
RRIRWRPPRLPRPRPRPGTMPRP | -0.153
RRIRMRPPRLPRPRPRPDNEPRP | 0.379
RRIRHRPPRLPRPRPRPNIFPRP | -0.0903
RRIRHRPPRLPRPRPRPKHTPRP | -0.104
RRIRSRPPRLPRPRPRPPELPRP | 0.629
RRIRGRPPRLPRPRPRPIWAPRP | 0.267
RRIRPRPPRLPRPRPRPICPPRP | -0.17
RRIRERPPRLPRPRPRPMSHPRP | -0.741
RRIRVRPPRLPRPRPRPDGKPRP | -0.0236
RRIRGRPPRLPRPRPRPWCWPRP | 0.682
RRIRYRPPRLPRPRPRPPAGPRP | 0.322
RRIRKRPPRLPRPRPRPDQWPRP | 0.376
RRIRMRPPRLPRPRPRPTQNPRP | 1.18
